Source: the supplement of paper PMC10567573
± gives the standard deviation.

Test: protein stability index of a GFP-peptide fusion (GPS, HEK-293T) (PSI 1-6); higher = more stable
Conditions: c terminus: a fixed tail appended
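Further: 24-mer peptide tiles fused after GFP, lentivirally expressed, FACS-sorted into six equal bins by GFP/DsRed ratio, decoded by Illumina sequencing, PSI is the read-weighted mean bin number.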

| Sequence | protein stability index (treatment: DMSO) | protein stability index (treatment: MLN4924 1 uM, 8 h) |
| --- | --- | --- |
| QFTKPNASLGDVQSGATISMPCST [SASS6] | 4.14 ± 0.38 | 4.06 ± 0.69 |
| AFAFQNTFPHSISAKNTSHPGSGT [SASS6] | 3.36 ± 0.39 | 3.45 ± 0.45 |
| DDSCLNNDIPHSIPLEQGSSCNGP [FAN1] | 5.17 ± 0.19 | 5.09 ± 0.1 |
| LPISTVREVALLRRLEAFEHPNVV [CDK4] | 2.62 ± 0.21 | 2.71 ± 0.45 |
| LDSQTEIYQYVQNSMAPHPARDYV [DLC1] | 2.99 ± 0.42 | 3.09 ± 0.25 |
| SAEYVGHLRATEKMKTRELHRESS [HDAC6] | 4.62 ± 0.36 | 4.47 ± 0.4 |
| KRKEEECSTTDHPYKKPYMETSPS [TBX5] | 5.09 ± 0.22 | 5.02 ± 0.18 |
| FEQYCAWQLFLAHNIPLETIIPIL [INTS3] | 3.27 ± 0.74 | 2.85 ± 0.34 |
| PEVVQHEEFILLSQGEVEKLIKCD [KLHL12] | 3.99 ± 0.4 | 3.86 ± 0.75 |
| DASSSTSTSSSFPSSFPSSSSSSS [MAGEA10] | 5.07 ± 0.37 | 5.23 ± 0.085 |
| CRLKKCFRAGMKKEAVQNERDRIS [HNF4A] | 3.22 ± 0.27 | 3.44 ± 0.25 |
| EPPPVKQELPPYNGFGLVEDSAQN [EFHC1] | 5.15 ± 0.059 | 5.15 ± 0.066 |
| RAWIPSENIQDITVNIHRLHVKRS [ZMYND11] | 2.55 ± 0.31 | 2.49 ± 0.16 |
| YLLDRAVDSFETQRNGLVFIYDMC [PTPN9] | 2.36 ± 0.47 | 2.29 ± 0.29 |
| SDSMHIEDVEAVQKLQDVLHEALQ [ESRRG] | 3.42 ± 0.29 | 3.54 ± 0.16 |
| IRNEQFAIRRFQSMPVRLLGHSPV [CDC25B] | 2.71 ± 0.4 | 2.71 ± 0.21 |
| INHGAEVTCKDKKGYTPLHAAASN [ANKRD44] | 4.23 ± 0.16 | 4.2 ± 0.24 |
| AYALPAGLSAPARCLVRCLLRREP [TRIB3] | 2.23 ± 0.49 | 1.87 ± 0.31 |
| PKSLVRLSLEAVICFKEMLANSWN [KLHDC2] | 2.41 ± 0.65 | 2.49 ± 0.3 |
| LTRIRKWIEHSKLREINFKIVEFN [GLT8D2] | 2.48 ± 0.44 | 2.51 ± 0.39 |
| TRRKKGKKDKDISKEKDTQNQNIT [KMT2E] | 4.75 ± 0.12 | 5.07 ± 0.1 |
| TLVDEGDLYNWEVAIFGPPNTYYE [CDC34] | 2.33 ± 0.38 | 2.8 ± 0.26 |
| DMVQKSVSKTLPSTWSDPSVNISL [CLINT1] | 3.04 ± 0.19 | 3.2 ± 0.19 |

| Sequence | protein stability index (treatment: DMSO) | protein stability index (treatment: MLN4924 1 uM, 8 h) |
| --- | --- | --- |
| SAENIPGCSSSGSCSQGSGILHYA [CRY1] | 2.9 ± 0.33 | 2.93 ± 0.2 |
| SLPETFGDFWRMIWEQRSATVVMM [PTPRD] | 2.69 ± 0.7 | 2.43 ± 0.83 |
| RFSHMSERDLQELSIQVEEERRAR [ZMAT5] | 5.51 ± 0.56 | 4.97 ± 0.87 |
| VNQPNNNGFTPLHFAAASTHGALC [ANKRD44] | 2.99 ± 0.3 | 3.06 ± 0.33 |
| KMTPVKNYQAHQSRVTMILFVLEL [WDFY2] | 3.19 ± 0.39 | 2.88 ± 0.5 |
| EDDWPRDVSLPRGAFPPRGPRPVQ [CDK4] | 4.57 ± 0.18 | 4.6 ± 0.24 |
| FRVNCYPGIDIREDLAQKLNLEED [HESX1] | 3.52 ± 0.34 | 3.69 ± 0.35 |
| EPEQTGADAAEDEEVDVTSVDPIA [RBBP5] | 5.64 ± 0.18 | 5.55 ± 0.33 |
| LGDALAGPPRAPGRSGWPAGGAPG [HES6] | 3.88 ± 0.23 | 3.94 ± 0.44 |
| PSVKYLSHPRVQSGCDKEALLTGG [RNF180] | 3.99 ± 0.28 | 4.04 ± 0.29 |
| KAPSTDDATWAAVAACTKEIDTQG [C10orf62] | 5.14 ± 0.2 | 5.11 ± 0.09 |
| MPYNFCLPSLSCRTSCSSRPCVPP [KRT33B] | 2.34 ± 0.41 | 2.18 ± 0.45 |
| RQPAFDTFDGSLFAVFPSLNEEQT [ETS2] | 3.89 ± 0.2 | 4.04 ± 0.31 |
| LSGTRESLAQGPDAATTDELSSLG [TBC1D10A] | 5.23 ± 0.34 | 4.9 ± 0.24 |
| LEAEKLVMFQRRYYKPGLLMMCFI [SCD] | 3.26 ± 0.91 | 2.8 ± 0.44 |
| AWLTEEEPEPAEVTSTSQSPHSPD [DDIT3] | 5.59 ± 0.23 | 5.63 ± 0.21 |
| LFRELWRYHFATGVWHQMGTDGYM [KLHDC10] | 3 ± 0.66 | 2.8 ± 0.47 |
| SENLEEETENIIAANHWVLPAAEF [TRIP13] | 4.8 ± 0.26 | 4.61 ± 0.17 |
| CWYCNRDFDDEKILIQHQKAKHFK [ZNF207] | 4.59 ± 0.39 | 4.45 ± 0.22 |
| PASGASSIKPEASQMPPPAGGTSD [SCNN1D] | 5.43 ± 0.14 | 5.45 ± 0.19 |
| DDDDHDDHEDNDKMNDSEGMDPER [NOL4L] | 5.54 ± 0.29 | 5.54 ± 0.23 |
| APDSGRSAPYSAAFLELPHGSGGS [TBX6] | 4.3 ± 0.17 | 4.46 ± 0.066 |
| AVQGLNLRSPNNFLSYYRLTRFLS [CCND1] | 2.3 ± 0.18 | 2.36 ± 0.27 |

| Sequence | protein stability index (treatment: DMSO) | protein stability index (treatment: MLN4924 1 uM, 8 h) |
| --- | --- | --- |
| CGSRRERCGYRLVRRQRSADEQLH [ESR2] | 2.79 ± 0.36 | 2.93 ± 0.29 |
| KTRQKSEKQMEEKRRANQKSSAQG [PPEF2] | 5.25 ± 0.27 | 5.3 ± 0.2 |
| FSGSLEPVACGSVLSEGSPLTEQE [SRPK2] | 5.23 ± 0.17 | 5.46 ± 0.16 |
| AVGYSSDSETLDLEEAEGAVGYQP [NFE2L1] | 5.24 ± 0.1 | 5.33 ± 0.21 |
| PETVMTTLYTAKKYAVPALEAHCV [BTBD1] | 2.7 ± 0.13 | 2.83 ± 0.15 |
| NEDGPSSENLEEETENIIAANHWV [TRIP13] | 5.08 ± 0.31 | 5.42 ± 0.23 |
| EIITQSPGRSSVASPRRLSNVSSS [MAP2] | 3.43 ± 0.18 | 3.66 ± 0.2 |
| NTKAEMEMSLAEELNHGRQGENQE [FATE1] | 5.53 ± 0.16 | 5.64 ± 0.12 |
| LNVATFLDPRYKRLPFLSAFERQQ [ZBED1] | 2.37 ± 0.086 | 2.43 ± 0.42 |
| ANCIVHRDLKPENILVTSGGTVKL [CDK4] | 3.23 ± 0.15 | 3.5 ± 0.32 |
| PSRREPPPRRSRSRSHDRLPYQRR [CLK3] | 5.23 ± 0.19 | 5.23 ± 0.14 |
| FQGSQGRAYLFNSVVNVGCGPAEE [YPEL3] | 2.57 ± 0.27 | 3.22 ± 0.1 |
| PDLESGSESGADTISVNQTRVNLS [DLC1] | 5.12 ± 0.26 | 5.16 ± 0.2 |
| PRIWSLAHTATASAVEGAPPARPR [IRX6] | 4.44 ± 0.26 | 4.43 ± 0.11 |
| SYFDMLYPEDSSWAAKAPGASSRE [SPDEF] | 3.56 ± 0.13 | 3.52 ± 0.22 |
| GPAGPYLLSKKGALQSRAAQRHRG [PLEKHN1] | 4.16 ± 0.48 | 3.98 ± 0.21 |
| GGGSGSAPGPSRIADYLLLPLAER [TRIB1] | 3.62 ± 0.48 | – |
| KGTSPSSKYVKLNVGGALYYTTMQ [KCTD10] | 2.28 ± 0.091 | 2.2 ± 0.14 |
| SSVSDVKFSHSGRYMLTRDYLTVK [PPP2R2C] | 2.88 ± 0.24 | 2.87 ± 0.39 |
| LSQVELQAAPGALPVSSPEPPPAL [TRIM55] | 4.79 ± 0.14 | 4.69 ± 0.21 |
| QSLYQEVFGRLRDENGRPYSPSQY [NFE2L1] | 3.59 ± 0.31 | 3.4 ± 0.18 |
| ELHEECEGNHPSARKLTAQRRAST [NET1] | 4.92 ± 0.21 | 5.09 ± 0.15 |
| RCGKFLQDGLPPTWRDFRTLEAFH [MED27] | 2.17 ± 0.33 | 2.12 ± 0.18 |

| Sequence | protein stability index (treatment: DMSO) | protein stability index (treatment: MLN4924 1 uM, 8 h) |
| --- | --- | --- |
| TSSPAIWKFPVPVLKTSRSTPLSP [KLHL13] | 3.19 ± 0.21 | 3.32 ± 0.086 |
| ELSRSRKLYGQRERVWALAQEKAA [FCHSD1] | 3.04 ± 0.33 | 3.47 ± 0.22 |
| SGLLEELNAEAGHLDPGFLASDKT [C18orf25] | 4.96 ± 0.18 | 4.76 ± 0.12 |
| FMLRYLYSQKESGHSNWLGDPEEP [ATL3] | 2.75 ± 0.33 | 2.06 ± 0.48 |
| DIVDEDVKLMMSTLPKSLSLPTTA [MYBL2] | 3.9 ± 0.27 | 3.7 ± 0.27 |
| LNGLQHLKAKKVWYDMFRDAAAIL [ZMAT5] | 2.63 ± 0.56 | 2.49 ± 0.34 |
| SLQESVEDSLATVKVVLIPVGQEI [IQUB] | 2.49 ± 0.53 | 2.24 ± 0.46 |
| TLEITLKDIVQTVRSRLEEAGIKV [TENT5C] | 2.02 ± 0.35 | 2.18 ± 0.35 |
| MLRWLIGGGREPQGLAEKSPLQTI [WDR41] | 2.33 ± 0.21 | 2.33 ± 0.23 |
| CVNMDRSFACQCPEGHVLRSDGKT [MATN2] | 3.92 ± 0.21 | 4.22 ± 0.73 |
| TSPLTAEKLCIYTDNSIKPQELLE [CCND2] | 4.05 ± 0.23 | 4.08 ± 0.27 |
| HYRASEEEPEYGEEIKGYPGVQAP [CHGB] | 4.64 ± 0.23 | 5.04 ± 0.36 |
| PDRASGPEGSLSQTMAGSSPNTPQ [FAM104A] | 5.3 ± 0.21 | 5.34 ± 0.2 |
| VLFAVGGWCSGDAISSVERYDPQT [KLHL20] | 2.12 ± 0.21 | 2.29 ± 0.15 |
| GYRVSAALEEADKMFLRTREPALD [EID1] | 3.9 ± 0.27 | 3.89 ± 0.3 |
| ITVGLVFLCLQYRLRGKLRAEIEN [MOG] | 3.18 ± 0.42 | 3.29 ± 0.33 |
| EVEEADGNKQWWFGGGCDLTPTYL [CPOX] | 3.43 ± 0.49 | 3.36 ± 0.39 |
| EGVIDSSDKEIVAEAERLDVKAMG [EIF5] | 5.34 ± 0.12 | 5.35 ± 0.15 |
| GPHTISNQNNYRLLSCGKILTGCK [ACSBG2] | 3.21 ± 0.13 | 2.84 ± 0.62 |
| KVRSYVKRALAEGAQIWCGEGVDK [ALDH8A1] | 2.77 ± 0.098 | 2.78 ± 0.29 |
| VAERGTTQGCHPAWEPRSESQASR [ZNF8] | 4.48 ± 0.22 | 4.6 ± 0.2 |
